Target: T1, HLA-A*02 (Homo sapiens, UniProt P04439, D140Y/D185E/D98H/E176V/E277Q/G131W/G231S/I119V/I121R/I166T/I218V/L300P/N151K/N90K/P208A/P217A/Q86G/Q94H/R138H/R169H)
T1 construct: made in house
Test: MHC binding assay, UV-ligand exchange with beta2m ELISA (peptide exchange yield)
Conditions: binding to HLA-A*02
Description: Candidate peptides for T cell based therapies according to the present invention were further tested for their MHC binding capacity (affinity). The individual peptide-MHC complexes were produced by UV-ligand exchange, where a UV-sensitive peptide is cleaved upon UV-irradiation, and exchanged with the peptide of interest as analyzed. Only peptide candidates that can effectively bind and stabilize the peptide-receptive MHC molecules prevent dissociation of the MHC complexes. To determine the yield of the exchange reaction, an ELISA was performed based on the detection of the light chain (β2m) of stabilized MHC complexes. The assay was performed as generally described in Rodenko et al. (Rodenko et al., 2006).
96 well MAXISorp plates (NUNC) were coated over night with 2 ug/ml streptavidin in PBS at room temperature, washed 4× and blocked for 1h at 37° C. in 2% BSA containing blocking buffer. Refolded HLA-A*02:01/MLA-001 monomers served as standards, covering the range of 15-500 ng/ml. Peptide-MHC monomers of the UV-exchange reaction were diluted 100 fold in blocking buffer. Samples were incubated for 1h at 37° C., washed four times, incubated with 2 ug/ml HRP conjugated anti-32m for 1h at 37° C., washed again and detected with TMB solution that is stopped with […]. Absorption was measured at 450 nm. Candidate peptides that show a high exchange yield (preferably higher than 50%, most preferred higher than 75%) are generally preferred for a generation and production of antibodies or fragments thereof, and/or T cell receptors or fragments thereof, as they show sufficient avidity to the MHC molecules and prevent dissociation of the MHC complexes.

Row | Peptide exchange (MHC class I binding score, peptide exchange yield) | Substance
1 | +++ (50%-75% = +++) | 77 (TLIDEQDIPLV; listed as Homo sapiens) [compound 77]
2 | ++ (20%-49% = ++) | 30 (AMIEEVFEA; listed as Homo sapiens) [compound 30]
3 | +++ (50%-75% = +++) | 21 (AIQDEIRSV; listed as Homo sapiens) [compound 21]
4 | +++ (50%-75% = +++) | 72 (FLTAINYLL; listed as Homo sapiens) [compound 72]
5 | ++ (20%-49% = ++) | 13 (ALMAMLVYV; listed as Homo sapiens) [compound 13]
6 | ++ (20%-49% = ++) | 76 (AVGPVHNSV; listed as Homo sapiens) [compound 76]
7 | ++++ (> = 75% = ++++) | 129 (RLQDILWFL; listed as Homo sapiens) [compound 129]
8 | ++ (20%-49% = ++) | 22 (FVDPNTQEKV; listed as Homo sapiens) [compound 22]
9 | +++ (50%-75% = +++) | 261 (QLQDRVYAL; listed as Homo sapiens) [compound 261]
10 | ++ (20%-49% = ++) | 83 (GQASYFYVA; listed as Homo sapiens) [compound 83]
11 | +++ (50%-75% = +++) | 74 (TLFGYSVVL; listed as Homo sapiens) [compound 74]
12 | ++ (20%-49% = ++) | 123 (VLDPALPALV; listed as Homo sapiens) [compound 123]
13 | +++ (50%-75% = +++) | 85 (VLNDILVRA; listed as Homo sapiens) [compound 85]
14 | +++ (50%-75% = +++) | 55 (SLATKIVEA; listed as Homo sapiens) [compound 55]
15 | ++ (20%-49% = ++) | 109 (SLDPSVTHL; listed as Homo sapiens) [compound 109]
16 | +++ (50%-75% = +++) | 53 (KMVGLVVAI; listed as Homo sapiens) [compound 53]
17 | ++ (20%-49% = ++) | 238 (GLYERPTAA; listed as Homo sapiens) [compound 238]
18 | ++ (20%-49% = ++) | 115 (SLDPDTLPAV; listed as Homo sapiens) [compound 115]
19 | +++ (50%-75% = +++) | 68 (SLSNRLYYL; listed as Homo sapiens) [compound 68]
20 | ++++ (> = 75% = ++++) | 3 (KLEENGDLYL; listed as Homo sapiens) [compound 3]
21 | ++++ (> = 75% = ++++) | 16 (YTLDIPVLFGV; listed as Homo sapiens) [compound 16]

Row | Peptide exchange (MHC class I binding score, peptide exchange yield) | Substance
22 | +++ (50%-75% = +++) | 152 (MMVGDLLEV; listed as Homo sapiens) [compound 152]
23 | ++ (20%-49% = ++) | 111 (AIVDLIHDI; listed as Homo sapiens) [compound 111]
24 | + (<20% = +) | 42 (LLDSVSRL; listed as Homo sapiens) [compound 42]
25 | ++ (20%-49% = ++) | 73 (YTLREVDTV; listed as Homo sapiens) [compound 73]
26 | + (<20% = +) | 82 (FIFDEAEKL; listed as Homo sapiens) [compound 82]
27 | +++ (50%-75% = +++) | 117 (KMPDVELFV; listed as Homo sapiens) [compound 117]
28 | +++ (50%-75% = +++) | 10 (GIAGSLKTV; listed as Homo sapiens) [compound 10]
29 | ++ (20%-49% = ++) | 79 (VTFKEYVTV; listed as Homo sapiens) [compound 79]
30 | ++++ (> = 75% = ++++) | 133 (ALLPRLHQL; listed as Homo sapiens) [compound 133]
31 | ++ (20%-49% = ++) | 41 (ALFENTPKA; listed as Homo sapiens) [compound 41]
32 | +++ (50%-75% = +++) | 131 (VTSNSGILGV; listed as Homo sapiens) [compound 131]
33 | +++ (50%-75% = +++) | 75 (AVIKFLELL; listed as Homo sapiens) [compound 75]
34 | +++ (50%-75% = +++) | 37 (ILAPFSVDL; listed as Homo sapiens) [compound 37]
35 | + (<20% = +) | 120 (VTPVTVSAV; listed as Homo sapiens) [compound 120]
36 | ++ (20%-49% = ++) | 87 (TIYKDFVYI; listed as Homo sapiens) [compound 87]
37 | +++ (50%-75% = +++) | 102 (VLLDIQEVFQI; listed as Homo sapiens) [compound 102]
38 | +++ (50%-75% = +++) | 252 (RLMEICESL; listed as Homo sapiens) [compound 252]
39 | +++ (50%-75% = +++) | 94 (LLLPAVPVGA; listed as Homo sapiens) [compound 94]
40 | ++ (20%-49% = ++) | 136 (FLFGGVLMTL; listed as Homo sapiens) [compound 136]
41 | ++ (20%-49% = ++) | 57 (TVFTDHMLTV; listed as Homo sapiens) [compound 57]
42 | +++ (50%-75% = +++) | 142 (ILVEGISTV; listed as Homo sapiens) [compound 142]

Row | Peptide exchange (MHC class I binding score, peptide exchange yield) | Substance
43 | +++ (50%-75% = +++) | 132 (ILGEVLAQL; listed as Homo sapiens) [compound 132]
44 | ++ (20%-49% = ++) | 254 (KLQGKLPEL; listed as Homo sapiens) [compound 254]
45 | ++++ (> = 75% = ++++) | 84 (ALCPRIHEV; listed as Homo sapiens) [compound 84]
46 | ++ (20%-49% = ++) | 46 (SQFPLPLAV; listed as Homo sapiens) [compound 46]
47 | +++ (50%-75% = +++) | 39 (HLLEGSVGV; listed as Homo sapiens) [compound 39]
48 | +++ (50%-75% = +++) | 67 (TLLQRLTEV; listed as Homo sapiens) [compound 67]
49 | +++ (50%-75% = +++) | 130 (SLLGGTFVGI; listed as Homo sapiens) [compound 130]
50 | +++ (50%-75% = +++) | 105 (ALLGTKILL; listed as Homo sapiens) [compound 105]
51 | +++ (50%-75% = +++) | 110 (FLLGVSKEV; listed as Homo sapiens) [compound 110]
52 | +++ (50%-75% = +++) | 32 (VQLDSIEDLEV; listed as Homo sapiens) [compound 32]
53 | +++ (50%-75% = +++) | 118 (QLWQFLVTL; listed as Homo sapiens) [compound 118]
54 | +++ (50%-75% = +++) | 237 (ALAPHLDDA; listed as Homo sapiens) [compound 237]
55 | ++ (20%-49% = ++) | 63 (SQIPAQPSV; listed as Homo sapiens) [compound 63]
56 | +++ (50%-75% = +++) | 157 (TLTSLLAQA; listed as Homo sapiens) [compound 157]
57 | ++ (20%-49% = ++) | 61 (AIVKEIVNI; listed as Homo sapiens) [compound 61]
58 | +++ (50%-75% = +++) | 243 (FMADDIFSV; listed as Homo sapiens) [compound 243]
59 | ++ (20%-49% = ++) | 89 (QLAPVFQRV; listed as Homo sapiens) [compound 89]
60 | +++ (50%-75% = +++) | 9 (FLVDGSYSI; listed as Homo sapiens) [compound 9]
61 | ++ (20%-49% = ++) | 48 (QVIEDSTGV; listed as Homo sapiens) [compound 48]
62 | ++++ (> = 75% = ++++) | 147 (YLMDDTVEI; listed as Homo sapiens) [compound 147]

From patent publication US10143730B2, “Peptides and combination of peptides for use in immunotherapy against various cancers” (immatics biotechnologies GmbH, priority 2015, dated 2018)
